Measured values taken from patent publication US20230051304A1 (Regeneron, published 2023).

B1: Monovalent: IL12(p35xp40)-Fc (Fc fusion)
chain 1: RVIPVSGPARCLSQSRNLLKTTDDMVKTAREKLKHYSCTAEDIDHEDITRDQTSTLKTCLPLELHKNESCLATRETSSTTRGSCLPPQKTSLMMTLCLGSIYEDLKMYQTEFQAINAALQNHNHQQIILDKGMLVAIDELMQSLNHNGETLRQKPPVGEADPYRVKMKLCILLHAFSTRVVTINRVMGYLSSAGGGGSGGGGSGGGGSESKYGPPCPPCPAPPVAGPSVFLFPPKPKDTLMISRTPEVTCVVVDVSQEDPEVQFNWYVDGVEVHNAKTKPREEQFNSTYRVVSVLTVLHQDWLNGKEYKCKVSNKGLPSSIEKTISKAKGQPREPQVYTLPPSQEEMTKNQVSLWCLVKGFYPSDIAVEWESNGQPENNYKTTPPVLDSDGSFFLYSRLTVDKSRWQEGNVFSCSVMHEALHNHYTQKSLSLSLGK
chain 2: MWELEKDVYVVEVDWTPDAPGETVNLTCDTPEEDDITWTSDQRHGVIGSGKTLTITVKEFLDAGQYTCHKGGETLSHSHLLLHKKENGIWSTEILKNFKNKTFLKCEAPNYSGRFTCSWLVQRNMDLKFNIKSSSSSPDSRAVTCGMASLSAEKVTLDQRDYEKYSVSCQEDVTCPTAEETLPIELALEARQQNKYENYSTSFFIRDIIKPDPPKNLQMKPLKNSQVEVSWEYPDSWSTPHSYFSLKFFVRIQRKKEKMKETEEGCNQKGAFLVEKTSTEVQCKGGNVCVQAQDRYYNSSCSKWACVPCRVRSGGGGSGGGGSGGGGSESKYGPPCPPCPAPPVAGPSVFLFPPKPKDTLMISRTPEVTCVVVDVSQEDPEVQFNWYVDGVEVHNAKTKPREEQFNSTYRVVSVLTVLHQDWLNGKEYKCKVSNKGLPSSIEKTISKAKGQPREPQVYTLPPSQEEMTKNQVSLSCAVKGFYPSDIAVEWESNGQPENNYKTTPPVLDSDGSFFLVSRLTVDKSRWQEGNVFSCSVMHEALHNRFTQKSLSLSPGK
B2: Monovalent: IL12*(p35*xp40*)-Fc (Fc fusion)
chain 1: RVIPVSGPARCLSQSRNLLKTTDDMVKTAREKLKHYSCTAEDIDHEDITRDQTSTLKTCLPLELHKNESSLATRETSSTTRGSCLPPQKTSLMMTLCLGSIYEDLKMYQTEFQAINAALQNHNHQQIILDKGMLVAIDELMQSLNHNGETLRQKPPVGEADPYRVKMKLCILLHAFSTRVVTINRVMGYLSSAGGGGSGGGGSGGGGSESKYGPPCPPCPAPPVAGPSVFLFPPKPKDTLMISRTPEVTCVVVDVSQEDPEVQFNWYVDGVEVHNAKTKPREEQFNSTYRVVSVLTVLHQDWLNGKEYKCKVSNKGLPSSIEKTISKAKGQPREPQVYTLPPSQEEMTKNQVSLWCLVKGFYPSDIAVEWESNGQPENNYKTTPPVLDSDGSFFLYSRLTVDKSRWQEGNVFSCSVMHEALHNHYTQKSLSLSLGK
chain 2: MWELEKDVYVVEVDWTPDAPGETVNLTCDTPEEDDITWTSDQRHGVIGSGKTLTITVKEFLDAGQYTCHKGGETLSHSHLLLHKKENGIWSTEILKNFKNKTFLKCEAPNYSGRFTCSWLVQRNMDLKFNIKSSSSSPDSRAVTCGMASLSAEKVTLDQRDYEKYSVSCQEDVTSPTAEETLPIELALEARQQNKYENYSTSFFIRDIIKPDPPKNLQMKPLKNSQVEVSWEYPDSWSTPHSYFSLKFFVRIQRKKEKMKETEEGCNQKGAFLVEKTSTEVQCKGGNVCVQAQDRYYNSSCSKWACVPCRVRSGGGGSGGGGSGGGGSESKYGPPCPPCPAPPVAGPSVFLFPPKPKDTLMISRTPEVTCVVVDVSQEDPEVQFNWYVDGVEVHNAKTKPREEQFNSTYRVVSVLTVLHQDWLNGKEYKCKVSNKGLPSSIEKTISKAKGQPREPQVYTLPPSQEEMTKNQVSLSCAVKGFYPSDIAVEWESNGQPENNYKTTPPVLDSDGSFFLVSRLTVDKSRWQEGNVFSCSVMHEALHNRFTQKSLSLSPGK
B3: Bivalent: IL12(p40-p35)-Fc (Fc fusion)
chain: MWELEKDVYVVEVDWTPDAPGETVNLTCDTPEEDDITWTSDQRHGVIGSGKTLTITVKEFLDAGQYTCHKGGETLSHSHLLLHKKENGIWSTEILKNFKNKTFLKCEAPNYSGRFTCSWLVQRNMDLKFNIKSSSSSPDSRAVTCGMASLSAEKVTLDQRDYEKYSVSCQEDVTCPTAEETLPIELALEARQQNKYENYSTSFFIRDIIKPDPPKNLQMKPLKNSQVEVSWEYPDSWSTPHSYFSLKFFVRIQRKKEKMKETEEGCNQKGAFLVEKTSTEVQCKGGNVCVQAQDRYYNSSCSKWACVPCRVRSGGGGSGGGGSGGGGSRVIPVSGPARCLSQSRNLLKTTDDMVKTAREKLKHYSCTAEDIDHEDITRDQTSTLKTCLPLELHKNESCLATRETSSTTRGSCLPPQKTSLMMTLCLGSIYEDLKMYQTEFQAINAALQNHNHQQIILDKGMLVAIDELMQSLNHNGETLRQKPPVGEADPYRVKMKLCILLHAFSTRVVTINRVMGYLSSAGGGGSGGGGSGGGGSESKYGPPCPPCPAPPVAGPSVFLFPPKPKDTLMISRTPEVTCVVVDVSQEDPEVQFNWYVDGVEVHNAKTKPREEQFNSTYRVVSVLTVLHQDWLNGKEYKCKVSNKGLPSSIEKTISKAKGQPREPQVYTLPPSQEEMTKNQVSLTCLVKGFYPSDIAVEWESNGQPENNYKTTPPVLDSDGSFFLYSRLTVDKSRWQEGNVFSCSVMHEALHNHYTQKSLSLSLGK
B4: Bivalent: IL12*(p40*-p35*)-Fc (Fc fusion)
chain: MWELEKDVYVVEVDWTPDAPGETVNLTCDTPEEDDITWTSDQRHGVIGSGKTLTITVKEFLDAGQYTCHKGGETLSHSHLLLHKKENGIWSTEILKNFKNKTFLKCEAPNYSGRFTCSWLVQRNMDLKFNIKSSSSSPDSRAVTCGMASLSAEKVTLDQRDYEKYSVSCQEDVTSPTAEETLPIELALEARQQNKYENYSTSFFIRDIIKPDPPKNLQMKPLKNSQVEVSWEYPDSWSTPHSYFSLKFFVRIQRKKEKMKETEEGCNQKGAFLVEKTSTEVQCKGGNVCVQAQDRYYNSSCSKWACVPCRVRSGGGGSGGGGSGGGGSRVIPVSGPARCLSQSRNLLKTTDDMVKTAREKLKHYSCTAEDIDHEDITRDQTSTLKTCLPLELHKNESSLATRETSSTTRGSCLPPQKTSLMMTLCLGSIYEDLKMYQTEFQAINAALQNHNHQQIILDKGMLVAIDELMQSLNHNGETLRQKPPVGEADPYRVKMKLCILLHAFSTRVVTINRVMGYLSSAGGGGSGGGGSGGGGSESKYGPPCPPCPAPPVAGPSVFLFPPKPKDTLMISRTPEVTCVVVDVSQEDPEVQFNWYVDGVEVHNAKTKPREEQFNSTYRVVSVLTVLHQDWLNGKEYKCKVSNKGLPSSIEKTISKAKGQPREPQVYTLPPSQEEMTKNQVSLTCLVKGFYPSDIAVEWESNGQPENNYKTTPPVLDSDGSFFLYSRLTVDKSRWQEGNVFSCSVMHEALHNHYTQKSLSLSLGK
B5: Bivalent: Fc-IL12*(p40*-p35*) (Fc fusion)
chain: ESKYGPPCPPCPAPPVAGPSVFLFPPKPKDTLMISRTPEVTCVVVDVSQEDPEVQFNWYVDGVEVHNAKTKPREEQFNSTYRVVSVLTVLHQDWLNGKEYKCKVSNKGLPSSIEKTISKAKGQPREPQVYTLPPSQEEMTKNQVSLTCLVKGFYPSDIAVEWESNGQPENNYKTTPPVLDSDGSFFLYSRLTVDKSRWQEGNVFSCSVMHEALHNHYTQKSLSLSLGKGGGGSGGGGSGGGGSMWELEKDVYVVEVDWTPDAPGETVNLTCDTPEEDDITWTSDQRHGVIGSGKTLTITVKEFLDAGQYTCHKGGETLSHSHLLLHKKENGIWSTEILKNFKNKTFLKCEAPNYSGRFTCSWLVQRNMDLKFNIKSSSSSPDSRAVTCGMASLSAEKVTLDQRDYEKYSVSCQEDVTSPTAEETLPIELALEARQQNKYENYSTSFFIRDIIKPDPPKNLQMKPLKNSQVEVSWEYPDSWSTPHSYFSLKFFVRIQRKKEKMKETEEGCNQKGAFLVEKTSTEVQCKGGNVCVQAQDRYYNSSCSKWACVPCRVRSGGGGSGGGGSGGGGSRVIPVSGPARCLSQSRNLLKTTDDMVKTAREKLKHYSCTAEDIDHEDITRDQTSTLKTCLPLELHKNESSLATRETSSTTRGSCLPPQKTSLMMTLCLGSIYEDLKMYQTEFQAINAALQNHNHQQIILDKGMLVAIDELMQSLNHNGETLRQKPPVGEADPYRVKMKLCILLHAFSTRVVTINRVMGYLSSA
B6: IL12(mutein 13)-Fc (Fc fusion)
chain: NGIWSTEILKNFKNKTFLKCEAPNYSGRFTCSWLVQRNMDLKFNIKSSSSSPDSRAVTCGMASLSAEKVTLDQRDYEKYSVSCQEDVTCPTAEETLPIELALEARQQNKYENYSTSFFIRDIIKPDPPKNLQMKPLKNSQVEVSWEYPDSWSTPHSYFSLKFFVRIQRKKEKMKETEEGCNQKGAFLVEKTSTEVQCKGGNVCVQAQDRYYNSSCSKWACVPCRVRSGGGGSGGGGSGGGGSRVIPVSGPARCLSQSRNLLKTTDDMVKTAREKLKHYSCTAEDIDHEDITRDQTSTLKTCLPLELHKNESCLATRETSSTTRGSCLPPQKTSLMMTLCLGSIYEDLKMYQTEFQAINAALQNHNHQQIILDKGMLVAIDELMQSLNHNGETLRQKPPVGEADPYRVKMKLCILLHAFSTRVVTINRVMGYLSSAGGGGSGGGGSGGGGSESKYGPPCPPCPAPPVAGPSVFLFPPKPKDTLMISRTPEVTCVVVDVSQEDPEVQFNWYVDGVEVHNAKTKPREEQFNSTYRVVSVLTVLHQDWLNGKEYKCKVSNKGLPSSIEKTISKAKGQPREPQVYTLPPSQEEMTKNQVSLTCLVKGFYPSDIAVEWESNGQPENNYKTTPPVLDSDGSFFLYSRLTVDKSRWQEGNVFSCSVMHEALHNHYTQKSLSLSLGK

These binders were tested against T1, murine IL12 receptor complex (IL12Rβ1 and IL12Rβ2) (mouse, UniProt Q60837 20-738; P97378 24-874) (assay: cell-based or functional assay).
T1 sequence (Q60837 20-738, chain 1 of 2): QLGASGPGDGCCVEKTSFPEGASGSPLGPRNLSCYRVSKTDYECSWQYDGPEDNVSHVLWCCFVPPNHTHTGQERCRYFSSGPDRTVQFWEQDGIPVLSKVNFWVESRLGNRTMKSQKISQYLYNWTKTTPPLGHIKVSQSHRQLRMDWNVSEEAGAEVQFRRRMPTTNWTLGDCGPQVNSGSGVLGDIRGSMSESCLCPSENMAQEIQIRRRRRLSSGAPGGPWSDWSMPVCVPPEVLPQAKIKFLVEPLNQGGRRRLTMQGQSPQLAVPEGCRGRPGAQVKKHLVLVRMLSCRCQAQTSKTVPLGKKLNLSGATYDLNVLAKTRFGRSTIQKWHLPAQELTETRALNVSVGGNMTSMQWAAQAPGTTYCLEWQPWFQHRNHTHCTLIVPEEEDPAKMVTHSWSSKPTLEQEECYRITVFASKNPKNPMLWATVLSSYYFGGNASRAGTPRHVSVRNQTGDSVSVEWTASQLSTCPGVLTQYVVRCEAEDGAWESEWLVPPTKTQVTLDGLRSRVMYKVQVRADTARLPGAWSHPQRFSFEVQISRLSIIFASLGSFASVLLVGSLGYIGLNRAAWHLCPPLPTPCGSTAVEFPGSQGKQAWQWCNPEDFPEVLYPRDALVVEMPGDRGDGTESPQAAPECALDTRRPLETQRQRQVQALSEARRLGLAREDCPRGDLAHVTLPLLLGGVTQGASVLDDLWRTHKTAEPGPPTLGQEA
T1 sequence (P97378 24-874, chain 2 of 2): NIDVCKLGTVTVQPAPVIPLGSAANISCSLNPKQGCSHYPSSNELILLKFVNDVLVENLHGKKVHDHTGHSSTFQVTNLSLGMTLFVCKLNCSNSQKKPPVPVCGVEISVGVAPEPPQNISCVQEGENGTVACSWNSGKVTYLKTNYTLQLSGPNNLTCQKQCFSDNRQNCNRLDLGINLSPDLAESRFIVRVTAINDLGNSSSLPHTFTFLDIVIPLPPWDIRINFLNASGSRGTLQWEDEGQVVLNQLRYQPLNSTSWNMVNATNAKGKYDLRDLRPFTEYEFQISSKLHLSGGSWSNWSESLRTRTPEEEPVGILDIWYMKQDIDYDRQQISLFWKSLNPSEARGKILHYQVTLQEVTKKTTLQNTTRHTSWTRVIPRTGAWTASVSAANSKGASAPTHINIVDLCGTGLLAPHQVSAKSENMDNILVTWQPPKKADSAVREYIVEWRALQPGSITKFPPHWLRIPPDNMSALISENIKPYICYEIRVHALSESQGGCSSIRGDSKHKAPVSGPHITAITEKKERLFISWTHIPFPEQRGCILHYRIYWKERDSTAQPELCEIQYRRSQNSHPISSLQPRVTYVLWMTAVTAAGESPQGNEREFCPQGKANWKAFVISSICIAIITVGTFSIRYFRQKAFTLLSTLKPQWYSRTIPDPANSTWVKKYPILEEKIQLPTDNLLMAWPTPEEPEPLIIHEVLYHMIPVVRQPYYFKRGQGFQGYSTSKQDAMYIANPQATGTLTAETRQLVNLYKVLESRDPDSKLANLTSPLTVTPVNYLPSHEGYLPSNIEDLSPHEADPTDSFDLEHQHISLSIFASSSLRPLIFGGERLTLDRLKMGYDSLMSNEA

Q: For B1, which “EC50 (M); STAT3-Luc reporter, CTLL2/STAT3-Luc cells” value (“EC50 (M) … CTLL2/STAT3-Luc cells” for short) is on record?
A: The value was 6.47e-11 M.

Q: What about the “Fold induction at 6.25 nM; STAT3-Luc reporter, CTLL2/STAT3-Luc cells” value of the same binder?
A: The value was 9.58 fold.

Q: And the “Max fold induction; STAT3-Luc reporter, CTLL2/STAT3-Luc cells” value (shortened to “Max fold induction … CTLL2/STAT3-Luc cells”)?
A: The value was 9.89 fold.

Q: What does the source list for B2?
A: EC50 (M); STAT3-Luc reporter, CTLL2/STAT3-Luc cells: 8.11e-11 M; Fold induction at 6.25 nM; STAT3-Luc reporter, CTLL2/STAT3-Luc cells: 8.93 fold; Max fold induction; STAT3-Luc reporter, CTLL2/STAT3-Luc cells: 9.62 fold

Q: What does the source list for B3?
A: EC50 (M); STAT3-Luc reporter, CTLL2/STAT3-Luc cells: 1.16e-11 M; Fold induction at 6.25 nM; STAT3-Luc reporter, CTLL2/STAT3-Luc cells: 7.52 fold; Max fold induction; STAT3-Luc reporter, CTLL2/STAT3-Luc cells: 15.4 fold

Q: Which “EC50 (M) … CTLL2/STAT3-Luc cells” value does the source give for B4 here?
A: Its value is 1.72e-11 M.

Q: What about the “Fold induction at 6.25 nM; STAT3-Luc reporter, CTLL2/STAT3-Luc cells” value of the same binder?
A: Its value is 7.01 fold.

Q: And the “Max fold induction … CTLL2/STAT3-Luc cells” value?
A: The value was 8.48 fold.

Q: How did the “EC50 (M) … CTLL2/STAT3-Luc cells” value turn out when B5 was run?
A: The value was 1.8e-11 M.

Q: And the “Fold induction at 6.25 nM; STAT3-Luc reporter, CTLL2/STAT3-Luc cells” value?
A: Its value is 5.96 fold.

Q: What about the “Max fold induction … CTLL2/STAT3-Luc cells” value of the same binder?
A: Its value is 7.83 fold.

Target: T1, murine IL12 receptor complex (IL12Rβ1 …)
Assay: cell-based or functional assay
Remark: another data set of the same source

Q: Which “Fold induction at 20 nM; STAT3-Luc reporter, CTLL2/STAT3-Luc cells” value does the source give for B6 here?
A: Its value is 1.37 fold.

Q: And the “Max fold induction … CTLL2/STAT3-Luc cells” value?
A: The value was 27.5 fold.
